Results: PMC6945111, “Cryo-EM Structure of Nucleotide-Bound Tel1^ATM Unravels the Molecular Basis of Inhibition and Structural Rationale for Disease-Associated Mutations” (Structure(London, England:1993), 2020)

Key:
[1] = target: Saccharomyces cerevisiae Tel1 (Saccharomyces cerevisiae) (UniProt P38110); test: cryo-EM structure; Tel1 100 nM with 1 mM AMP-PNP and 4 mM Mg(OAc)2, diluted into 50 mM Tris-HCl, 50 mM NaCl, pH 7.4; C2 symmetry applied; homodimer
[2] = target: T1, Tel1 (Saccharomyces cerevisiae, UniProt P38110); test: cryo-EM structure; format: binding; conditions: 3.7-3.9 A resolution; 1 mM AMP-PNP, 4 mM Mg(OAc)2, pH 7.4, on ice; kinase active site, one Mg2+ modelled, 1 ligand per monomer
T1 construct: full-length 2787 residues, homodimer; expressed as GST-Tel1 (pBL602, Gal promoter) in S. cerevisiae PY265
T1 sequence (P38110 whole entry): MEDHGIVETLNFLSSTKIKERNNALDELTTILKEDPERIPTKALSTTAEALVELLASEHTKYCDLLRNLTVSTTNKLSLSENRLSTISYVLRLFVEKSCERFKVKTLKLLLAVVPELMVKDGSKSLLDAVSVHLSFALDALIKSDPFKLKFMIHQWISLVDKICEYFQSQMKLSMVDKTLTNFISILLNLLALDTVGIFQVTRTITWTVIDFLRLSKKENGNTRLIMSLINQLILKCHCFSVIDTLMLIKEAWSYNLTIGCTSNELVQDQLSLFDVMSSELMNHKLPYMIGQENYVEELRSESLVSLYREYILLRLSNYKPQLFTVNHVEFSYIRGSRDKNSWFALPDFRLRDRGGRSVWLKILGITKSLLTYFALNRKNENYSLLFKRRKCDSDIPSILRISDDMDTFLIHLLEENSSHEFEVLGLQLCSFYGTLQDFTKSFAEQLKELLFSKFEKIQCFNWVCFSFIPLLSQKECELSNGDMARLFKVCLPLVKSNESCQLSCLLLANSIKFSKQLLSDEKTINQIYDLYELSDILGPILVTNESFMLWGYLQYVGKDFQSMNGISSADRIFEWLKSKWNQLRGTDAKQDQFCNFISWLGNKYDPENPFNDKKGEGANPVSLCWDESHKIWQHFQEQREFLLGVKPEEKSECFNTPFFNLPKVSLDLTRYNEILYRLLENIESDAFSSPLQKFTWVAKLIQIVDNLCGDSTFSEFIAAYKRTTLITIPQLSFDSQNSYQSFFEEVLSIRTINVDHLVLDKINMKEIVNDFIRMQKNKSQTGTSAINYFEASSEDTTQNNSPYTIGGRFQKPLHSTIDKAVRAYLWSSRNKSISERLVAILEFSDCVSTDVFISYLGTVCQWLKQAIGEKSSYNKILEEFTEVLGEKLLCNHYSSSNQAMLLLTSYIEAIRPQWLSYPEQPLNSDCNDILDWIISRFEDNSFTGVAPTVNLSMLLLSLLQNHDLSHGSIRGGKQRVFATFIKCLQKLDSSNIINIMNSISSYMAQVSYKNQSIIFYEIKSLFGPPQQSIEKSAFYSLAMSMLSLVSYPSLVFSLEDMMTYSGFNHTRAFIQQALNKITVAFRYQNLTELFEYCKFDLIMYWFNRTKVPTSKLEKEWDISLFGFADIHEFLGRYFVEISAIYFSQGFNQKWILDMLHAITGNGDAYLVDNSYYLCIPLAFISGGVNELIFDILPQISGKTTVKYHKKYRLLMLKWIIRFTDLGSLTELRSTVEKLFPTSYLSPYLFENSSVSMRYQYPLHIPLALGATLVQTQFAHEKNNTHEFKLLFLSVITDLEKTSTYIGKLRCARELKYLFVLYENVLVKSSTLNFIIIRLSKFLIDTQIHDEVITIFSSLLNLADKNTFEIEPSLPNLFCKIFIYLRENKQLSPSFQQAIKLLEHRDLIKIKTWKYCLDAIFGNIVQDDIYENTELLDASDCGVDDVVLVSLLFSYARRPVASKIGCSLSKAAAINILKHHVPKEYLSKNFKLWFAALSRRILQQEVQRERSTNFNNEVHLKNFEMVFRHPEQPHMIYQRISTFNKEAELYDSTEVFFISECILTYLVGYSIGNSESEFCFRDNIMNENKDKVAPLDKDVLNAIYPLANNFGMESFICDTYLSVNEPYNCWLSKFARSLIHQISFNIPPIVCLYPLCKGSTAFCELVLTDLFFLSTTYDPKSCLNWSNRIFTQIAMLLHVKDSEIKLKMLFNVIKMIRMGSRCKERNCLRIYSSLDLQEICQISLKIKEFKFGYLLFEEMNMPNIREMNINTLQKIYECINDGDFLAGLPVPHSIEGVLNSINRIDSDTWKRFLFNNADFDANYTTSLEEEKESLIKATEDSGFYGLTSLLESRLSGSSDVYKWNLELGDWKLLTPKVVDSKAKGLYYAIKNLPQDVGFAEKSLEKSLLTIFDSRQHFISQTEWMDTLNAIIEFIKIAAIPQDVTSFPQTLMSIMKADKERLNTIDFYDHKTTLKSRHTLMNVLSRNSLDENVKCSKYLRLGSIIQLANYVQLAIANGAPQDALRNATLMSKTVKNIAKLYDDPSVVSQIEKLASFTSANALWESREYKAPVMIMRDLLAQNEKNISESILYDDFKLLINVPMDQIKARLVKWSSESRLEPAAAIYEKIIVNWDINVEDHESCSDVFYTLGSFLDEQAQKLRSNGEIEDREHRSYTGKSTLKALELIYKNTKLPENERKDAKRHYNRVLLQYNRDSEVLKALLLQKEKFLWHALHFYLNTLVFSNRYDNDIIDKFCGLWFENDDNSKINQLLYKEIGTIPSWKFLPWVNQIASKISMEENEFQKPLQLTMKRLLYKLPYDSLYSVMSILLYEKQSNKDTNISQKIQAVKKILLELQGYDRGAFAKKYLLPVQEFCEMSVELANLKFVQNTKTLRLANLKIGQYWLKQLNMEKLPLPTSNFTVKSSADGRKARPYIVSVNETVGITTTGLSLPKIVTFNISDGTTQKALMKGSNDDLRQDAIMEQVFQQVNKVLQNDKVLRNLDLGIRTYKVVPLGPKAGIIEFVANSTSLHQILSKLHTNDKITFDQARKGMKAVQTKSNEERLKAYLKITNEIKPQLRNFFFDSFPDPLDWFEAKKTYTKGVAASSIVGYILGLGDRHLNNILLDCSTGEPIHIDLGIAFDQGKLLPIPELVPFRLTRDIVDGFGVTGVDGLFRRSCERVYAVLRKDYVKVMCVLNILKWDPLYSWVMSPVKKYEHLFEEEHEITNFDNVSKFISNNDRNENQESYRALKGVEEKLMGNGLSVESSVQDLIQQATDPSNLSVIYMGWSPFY

| Molecule | stoichiometry N [1] | cryo-EM structure [2] |
| --- | --- | --- |
| Saccharomyces cerevisiae Tel1, P38110 1-2787 | 2 | – |
| Nc1ncnc2c1ncn2[C@@H]1O[C@H](COP(=O)(O)OP(=O)(O)NP(=O)(O)O)[C@@H](O)[C@H]1O [AMP-PNP] | – | clear density for AMP-PNP |
